Paper PMC3338774, “Crystal Structure of ChrR—A Quinone Reductase with the Capacity to Reduce Chromate” (PLoS ONE, 2012)

T1: ChrR (Escherichia coli, UniProt P0AGE6)
T1 construct: full-length recombinant from E. coli BL21 (DE3), pET28a (His) or pTYB3 (intein), tags removed by thrombin or DTT; untagged WT crystallized; tetramer; residues 4-184 (chain A) and 4-185 (chain B) seen in crystal
T1 sequence (P0AGE6 1-188): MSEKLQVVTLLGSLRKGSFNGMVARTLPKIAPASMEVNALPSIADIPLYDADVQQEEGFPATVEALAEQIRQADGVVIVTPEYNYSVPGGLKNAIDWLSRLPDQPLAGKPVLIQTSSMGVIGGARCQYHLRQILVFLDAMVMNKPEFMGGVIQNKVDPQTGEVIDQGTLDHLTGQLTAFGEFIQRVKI


Experiments:
[1] = target: T1, ChrR; assay: X-ray crystallography, […] Å; assay type: binding; conditions: bound at active site, non-covalent; crystals at PEG8000, NaCl, calcium acetate
[2] = target: the molecule itself; assay: crystal structure; untagged wild type ChrR at 26 mg/mL, sitting drop vapor diffusion, PEG8000, sodium chloride, calcium acetate; 2.2 Å, space group P6(3)22; two molecules (a homo-dimer) in the asymmetric unit, tetramer formed by two symmetry related dimers
[3] = target: the molecule itself; assay: SEC; analytic Superdex 200 10/300 column, 0.5 mL per min; proteins pre-incubated with FMN (1 mM, 2 h); various protein concentrations, including those used for measuring the enzyme activity

| Molecule | stoichiometry N [3] | other results |
| --- | --- | --- |
| Cc1cc2nc3c(=O)[nH]c(=O)nc-3n(C[C@H](O)[C@H](O)[C@H](O)COP(=O)(O)O)c2cc1C [FMN, flavin mononucleotide] | – | X-ray crystallography, 2.2 Å [1]: FMN is anchored by several hydrogen bonds to a typical strand-loop-helix nucleotide-binding motif |
| Escherichia coli ChrR enzyme, wild type (enzyme, ChrR, quinone reductase with chromate reductase activity, Escherichia coli; the crystal structure models residues 4-184 (chain A) and 4-185 (chain B); The crystallised protein is called untagged; also called ChrR WT; native ChrR; source: E. coli BL21 (DE3), purified (His-Trap nickel or chitin bead column, tag removed, gel filtration on Superdex 200)) EKLQVVTLLGSLRKGSFNGMVARTLPKIAPASMEVNALPSIADIPLYDADVQQEEGFPATVEALAEQIRQADGVVIVTPEYNYSVPGGLKNAIDWLSRLPDQPLAGKPVLIQTSSMGVIGGARCQYHLRQILVFLDAMVMNKPEFMGGVIQNKVDPQTGEVIDQGTLDHLTGQLTAFGEFIQRVKI | – | stoichiometry N [2]: 4 |
| ChrR21 (Tyr128Asn) (enzyme, Escherichia coli, ChrR, Escherichia coli, with Tyr128Asn; PDB 3SVL is the wild-type parent; source: E. coli BL21 (DE3), pET28a, purified (His-Trap nickel column, tag removed, gel filtration)) EKLQVVTLLGSLRKGSFNGMVARTLPKIAPASMEVNALPSIADIPLYDADVQQEEGFPATVEALAEQIRQADGVVIVTPEYNYSVPGGLKNAIDWLSRLPDQPLAGKPVLIQTSSMGVIGGARCQNHLRQILVFLDAMVMNKPEFMGGVIQNKVDPQTGEVIDQGTLDHLTGQLTAFGEFIQRVKI | 4 | – |
| ChrR43 (Arg125Met) (enzyme, Escherichia coli, ChrR, Escherichia coli, with Arg125Met; PDB 3SVL is the wild-type parent; source: E. coli BL21 (DE3), pET28a, purified (His-Trap nickel column, tag removed, gel filtration)) EKLQVVTLLGSLRKGSFNGMVARTLPKIAPASMEVNALPSIADIPLYDADVQQEEGFPATVEALAEQIRQADGVVIVTPEYNYSVPGGLKNAIDWLSRLPDQPLAGKPVLIQTSSMGVIGGAMCQYHLRQILVFLDAMVMNKPEFMGGVIQNKVDPQTGEVIDQGTLDHLTGQLTAFGEFIQRVKI | 4 | – |
| ChrR41 (Glu146Thr) (enzyme, Escherichia coli, ChrR, Escherichia coli, with Glu146Thr; PDB 3SVL is the wild-type parent; source: E. coli BL21 (DE3), pET28a, purified (His-Trap nickel column, tag removed, gel filtration)) EKLQVVTLLGSLRKGSFNGMVARTLPKIAPASMEVNALPSIADIPLYDADVQQEEGFPATVEALAEQIRQADGVVIVTPEYNYSVPGGLKNAIDWLSRLPDQPLAGKPVLIQTSSMGVIGGARCQYHLRQILVFLDAMVMNKPTFMGGVIQNKVDPQTGEVIDQGTLDHLTGQLTAFGEFIQRVKI | 4 | – |
| ChrR42 (Tyr85Asn) (enzyme, Escherichia coli, ChrR, Escherichia coli, with Tyr85Asn; PDB 3SVL is the wild-type parent; source: E. coli BL21 (DE3), pET28a, purified (His-Trap nickel column, tag removed, gel filtration)) EKLQVVTLLGSLRKGSFNGMVARTLPKIAPASMEVNALPSIADIPLYDADVQQEEGFPATVEALAEQIRQADGVVIVTPEYNNSVPGGLKNAIDWLSRLPDQPLAGKPVLIQTSSMGVIGGARCQYHLRQILVFLDAMVMNKPEFMGGVIQNKVDPQTGEVIDQGTLDHLTGQLTAFGEFIQRVKI | 4 | – |
